According to patent publication US20120316071A1 (published 2012):

T1: rHuman Erythropoietin R/Fc Chimera, CF (R&D Systems Cat#963-ER) (human, UniProt P19235 25-250)
T1 construct: Bought recombinant protein; also called EPO R; Epo R; Fc part of the bought chimera not given
T1 sequence (looked up): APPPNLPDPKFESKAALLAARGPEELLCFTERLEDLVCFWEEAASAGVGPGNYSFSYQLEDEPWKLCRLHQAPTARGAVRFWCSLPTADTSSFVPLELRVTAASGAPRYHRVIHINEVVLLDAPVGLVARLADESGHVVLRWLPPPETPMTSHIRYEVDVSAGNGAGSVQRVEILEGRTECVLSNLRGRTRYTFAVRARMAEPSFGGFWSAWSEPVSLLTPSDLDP

B1: Fab VH3-23_IGHD2-21*01>3_IGHJ6*01 H100E/S108P/Y113G Y109G & V2-13_IGLJ2*01 (Fab, V domains shown)
VH: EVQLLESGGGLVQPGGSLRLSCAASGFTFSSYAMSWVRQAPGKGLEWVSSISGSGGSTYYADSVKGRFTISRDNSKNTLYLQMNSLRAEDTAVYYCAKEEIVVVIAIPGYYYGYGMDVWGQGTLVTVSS
VL: SSELTQDPAVSVALGQTVRITCQGDSLRSYYASWYQQKPGQAPVLVIYGKNNRPSGIPDRFSGSSSGNTASLTITGAQAEDEADYYCNSRDSSGNHLVVFGGGTKLTVL
notes: Tested as Fab made in E. coli: VH joined to CH1 (His and Flag tags), VL joined to lambda CL; also called EPG Y109G
B2: Fab VH3-23_IGHD2-21*01>3_IGHJ6*01 H100E/S108P/Y113G Y110P & V2-13_IGLJ2*01 (Fab, V domains shown)
VH: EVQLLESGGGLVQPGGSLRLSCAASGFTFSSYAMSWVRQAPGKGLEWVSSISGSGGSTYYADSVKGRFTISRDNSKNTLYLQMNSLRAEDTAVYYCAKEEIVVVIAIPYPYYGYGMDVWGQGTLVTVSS
VL: B1 VL
notes: Tested as Fab made in E. coli: VH joined to CH1 (His and Flag tags), VL joined to lambda CL; also called EPG Y110P
B3: Fab VH3-23_IGHD2-21*01>3_IGHJ6*01 H100E/S108P/Y113G Y110S & V2-13_IGLJ2*01 (Fab, V domains shown)
VH: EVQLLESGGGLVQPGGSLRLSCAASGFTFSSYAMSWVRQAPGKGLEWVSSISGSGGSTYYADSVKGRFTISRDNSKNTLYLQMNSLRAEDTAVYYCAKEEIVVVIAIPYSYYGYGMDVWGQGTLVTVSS
VL: B1 VL
notes: Tested as Fab made in E. coli: VH joined to CH1 (His and Flag tags), VL joined to lambda CL; also called EPG Y110S
B4: Fab VH3-23_IGHD2-21*01>3_IGHJ6*01 H100E/S108P/Y113G Y109R & V2-13_IGLJ2*01 (Fab, V domains shown)
VH: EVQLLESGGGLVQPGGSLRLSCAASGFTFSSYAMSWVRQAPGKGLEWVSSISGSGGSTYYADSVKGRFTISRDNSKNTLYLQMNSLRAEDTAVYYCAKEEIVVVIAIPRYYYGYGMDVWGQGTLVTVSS
VL: B1 VL
notes: also called EPG Y109R
B5: Fab VH3-23_IGHD2-21*01>3_IGHJ6*01 H100E/S108P/Y113G Y110N & V2-13_IGLJ2*01 (Fab, V domains shown)
VH: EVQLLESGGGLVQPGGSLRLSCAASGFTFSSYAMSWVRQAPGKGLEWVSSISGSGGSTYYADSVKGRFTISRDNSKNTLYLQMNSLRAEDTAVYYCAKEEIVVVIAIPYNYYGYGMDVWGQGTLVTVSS
VL: B1 VL
notes: Tested as Fab made in E. coli: VH joined to CH1 (His and Flag tags), VL joined to lambda CL; also called EPG Y110N
B6: Fab VH3-23_IGHD2-21*01>3_IGHJ6*01 H100E/S108P/Y113G Y110H & V2-13_IGLJ2*01 (Fab, V domains shown)
VH: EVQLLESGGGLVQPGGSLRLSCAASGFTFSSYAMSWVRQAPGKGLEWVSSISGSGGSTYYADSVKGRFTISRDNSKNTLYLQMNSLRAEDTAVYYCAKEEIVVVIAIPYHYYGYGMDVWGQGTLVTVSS
VL: B1 VL
notes: Tested as Fab made in E. coli: VH joined to CH1 (His and Flag tags), VL joined to lambda CL; also called EPG Y110H

Experiments:
Assay in all cases: ECL multispot (MSD) binding assay, antigens spotted on plate, 20 nM Fab;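 note: fab incubated 1 h at 20 °C on antigen-spotted wells, bound Fab detected by TAG-labelled antibody, ratio of 4 or more over blank counted as a hit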
[1] = molecular target: T2, rHuman ErbB2/Fc Chimera, CF (R&D Systems Cat#1129-ER) (human, UniProt P04626 23-652)
T2 construct: Bought recombinant protein; also called human epidermal growth factor 2 receptor; Fc part of the bought chimera not given

[2] = molecular target: T3, rHuman EGF R/Fc Chimera, CF (R&D Systems Cat#344-ER) (human, UniProt P00533 25-645)
T3 construct: Bought recombinant protein; also called epidermal growth factor receptor; Fc part of the bought chimera not given

[3] = molecular target: T4, rHuman Notch-1/Fc Chimera, CF (R&D Systems Cat#3647-TK) (human, UniProt P46531 19-526)
T4 construct: Bought recombinant protein; Fc part of the bought chimera not given

[4] = molecular target: T5, rHuman CD44/Fc Chimera, CF (R&D Systems Cat#3660-CD) (human, UniProt P16070 21-220)
T5 construct: Bought recombinant protein; Fc part of the bought chimera not given

[5] = molecular target: T6, rHuman IGF-1 sR, (IGF-1 sR), CF (R&D Systems Cat#391-GR) (human, UniProt P08069 31-932)
T6 construct: Bought recombinant soluble receptor; The column head prints only 'IGF-1'; also called insulin-like growth factor-1 soluble receptor

[6] = molecular target: T1, rHuman Erythropoietin R/Fc Chimera, CF …
[7] = molecular target: T7, Recombinant Human DLL4 (R&D Systems Cat#1506-D4/CF) (human, UniProt Q9NR61 27-524)
T7 construct: Bought recombinant protein; also called delta-like protein 4; rHuman DLL4

[8] = molecular target: T8, rHuman P-Cadherin/Fc Chimera, CF (R&D Systems Cat#861-PC) (human, UniProt P22223 108-654)
T8 construct: Bought recombinant protein; Fc part of the bought chimera not given

Row | Binder | ECL multispot signal (ratio to blank; column not labelled) [1] | ECL multispot signal (ratio to blank; column not labelled) [2] | ECL multispot signal (ratio to blank; column not labelled) [3] | ECL multispot signal (ratio to blank; column not labelled) [4] | ECL multispot signal (ratio to blank; column not labelled) [5] | ECL multispot signal (ratio to blank; column not labelled) [6] | ECL multispot signal (ratio to blank; column not labelled) [7] | ECL multispot signal (ratio to blank; column not labelled) [8]
1 | B1 | 1.4 | 2 | 1.5 | 1.5 | 1.6 | 11.1 | 1.9 | –
2 | B2 | 0.9 | 1.1 | 1.1 | 1.2 | 1.2 | 2.9 | 1.4 | 1.7
3 | B3 | 1 | 1.3 | 0.8 | 1 | 1.1 | 4.5 | 1.2 | 1.9
4 | B4 | 2 | 1.8 | 1.4 | 1 | 1.3 | 30.1 | 1.5 | 7.4
5 | B5 | 1.2 | 0.9 | 1.3 | 0.8 | 0.9 | 1.6 | 1.2 | 1.2
6 | B6 | 2.2 | 1.7 | 1.4 | 1.4 | 1.3 | – | 1.9 | –
